Reference: the supplement of paper PMC10724198
± gives the standard deviation of the averaged measurements.

What was measured:
Saccharomyces cerevisiae [1] = test: protein stability index of tFT-peptide fusion (C-terminal peptide) (PSI (0-1 scale)); higher = more stable (slower turnover)
Experimental: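 MPS profiling in S. cerevisiae of the tFT-X12 degron library: putative degron peptides plus stable controls, 12 aa, fused to the C-terminus of a sfGFP-mCherry timer. Cells are FACS-sorted into 8 mCherry/sfGFP bins and deep-sequenced. PSI runs from 0 (unstable) to 1 (stable). Backgrounds are wild type, das1Δ and doa10Δ at 30 °C, and wild type, das1Δ, cdc34-1 and cdc53-1 at 37 °C; 2-3 technical replicates each.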

Saccharomyces cerevisiae [2] = test: as above; details: genetic background: wild type; temperature: 30 C
[3] = genetic background: cdc34-1, temperature: 37 C
[4] = genetic background: cdc53-1, temperature: 37 C
[5] = genetic background: das1 deletion, temperature: 30 C
[6] = genetic background: das1 deletion, temperature: 37 C
[7] = genetic background: doa10 deletion, temperature: 30 C
[8] = genetic background: wild type, temperature: 30 C
[9] = genetic background: wild type, temperature: 37 C
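Also: PSI is a weighted mean of sequencing reads over stability bins, variants kept only with over 10 reads, mCherry proximal and sfGFP distal, peptide attached via GGGS linker.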

Row | Sequence | protein stability index (Saccharomyces cerevisiae [1]; [3]) | protein stability index (Saccharomyces cerevisiae [1]; [4]) | protein stability index (Saccharomyces cerevisiae [1]; [5]) | protein stability index (Saccharomyces cerevisiae [1]; [6]) | protein stability index (Saccharomyces cerevisiae [1]; [7]) | protein stability index (Saccharomyces cerevisiae [1]; [8]) | protein stability index (Saccharomyces cerevisiae [1]; [9]) | protein stability index (Saccharomyces cerevisiae [2])
1 | FNLFWPVSAFVV | 0.506 ± 0.061 | 0.563 ± 0.011 | 0.436 ± 0.03 | 0.5749 ± 0.0047 | 0.211 ± 0.0037 | 0.254 ± 0.0078 | 0.398 ± 0.044 | 0.374 ± 0.019
2 | FNMLFVVRLLYM | 0.37 ± 0.033 | 0.418 ± 0.0046 | 0.334 ± 0.053 | 0.473 ± 0.026 | 0.259 ± 0.027 | 0.257 ± 0.045 | 0.396 ± 0.0043 | 0.365 ± 0.0057
3 | FPFFLLAAPFLA | 0.564 ± 0.007 | 0.621 ± 0.0096 | 0.546 ± 0.019 | 0.6439 ± 0.0013 | 0.16 ± 0.0077 | 0.19 ± 0.026 | 0.295 ± 0.026 | 0.237 ± 0.036
4 | FPFFVFRVWFGA | 0.4642 ± 0.0036 | 0.535 ± 0.01 | 0.414 ± 0.026 | 0.565 ± 0.006 | 0.32953 ± 0.00015 | 0.346 ± 0.033 | 0.502 ± 0.022 | 0.464 ± 0.014
5 | FPPFALLLIIND | 0.475 ± 0.015 | 0.54 ± 0.039 | 0.396 ± 0.023 | 0.581 ± 0.058 | 0.415 ± 0.0098 | 0.421 ± 0.029 | 0.525 ± 0.0097 | 0.406 ± 0.089
6 | FPRQFVYLPLLF | 0.647 ± 0.064 | 0.709 ± 0.025 | 0.555 ± 0.011 | 0.696 ± 0.017 | 0.372 ± 0.018 | 0.402 ± 0.032 | 0.595 ± 0.02 | 0.487 ± 0.011
7 | FQPLELFFVCVF | 0.0866 ± 0.04 | 0.154 ± 0.025 | 0.199 ± 0.02 | 0.235 ± 0.014 | 0.163 ± 0.014 | 0.181 ± 0.023 | 0.212 ± 0.016 | 0.305 ± 0.014
8 | FRCFVLPYFGRF | 0.608 ± 0.032 | 0.699 ± 0.021 | 0.647 ± 0.0081 | 0.7 ± 0.0079 | 0.372 ± 0.037 | 0.37 ± 0.015 | 0.5489 ± 0.0039 | 0.435 ± 0.036
9 | FRDRFLRWNLVS | 0.481 ± 0.073 | 0.676 ± 0.013 | 0.6489 ± 0.0058 | 0.757 ± 0.025 | 0.129 ± 0.026 | 0.14 ± 0.025 | 0.21 ± 0.02 | 0.223 ± 0.022
10 | FRVFYSFLLCLS | 0.194 ± 0.0057 | 0.189 ± 0.01 | 0.228 ± 0.015 | 0.307 ± 0.0087 | 0.178 ± 0.0048 | 0.162 ± 0.0088 | 0.219 ± 0.0085 | 0.22 ± 0.0028
11 | FRVILISACESV | 0.565 ± 0.016 | 0.582 ± 0.011 | 0.403 ± 0.032 | 0.5562 ± 0.0034 | 0.384 ± 0.032 | 0.397 ± 0.019 | 0.5385 ± 0.004 | 0.464 ± 0.0071
12 | FSFPAFTFIVSI | 0.352 ± 0.03 | 0.346 ± 0.006 | 0.336 ± 0.024 | 0.475 ± 0.024 | 0.502 ± 0.031 | 0.329 ± 0.0099 | 0.447 ± 0.035 | 0.4357 ± 0.0022
13 | FSICGFYSLCFG | 0.569 ± 0.028 | 0.617 ± 0.019 | 0.503 ± 0.021 | 0.628 ± 0.013 | 0.4968 ± 0.0046 | 0.512 ± 0.0077 | 0.599 ± 0.023 | 0.492 ± 0.045
14 | FSLLFVRFCFFL | 0.2674 ± 0.00097 | 0.323 ± 0.0039 | 0.256 ± 0.037 | 0.4195 ± 0.0026 | 0.227 ± 0.0074 | 0.248 ± 0.039 | 0.3372 ± 0.0022 | 0.305 ± 0.037
15 | FSLLLSLSLFHC | 0.547 ± 0.053 | 0.555 ± 0.018 | 0.534 ± 0.0069 | 0.549 ± 0.006 | 0.183 ± 0.0059 | 0.2 ± 0.025 | 0.356 ± 0.0068 | 0.31 ± 0.015
16 | FSVLVVYTRLFQ | 0.427 ± 0.064 | 0.452 ± 0.033 | 0.332 ± 0.042 | 0.558 ± 0.013 | 0.306 ± 0.011 | 0.321 ± 0.033 | 0.508 ± 0.012 | 0.414 ± 0.091
17 | FTEFWFFKQMSV | 0.579 ± 0.019 | 0.761 ± 0.015 | 0.618 ± 0.031 | 0.7757 ± 0.0069 | 0.11 ± 0.01 | 0.126 ± 0.022 | 0.137 ± 0.04 | 0.171 ± 0.016
18 | FTRWLVYCTPLC | 0.554 ± 0.033 | 0.569 ± 0.0098 | 0.46 ± 0.011 | 0.586 ± 0.0022 | 0.437 ± 0.029 | 0.441 ± 0.012 | 0.567 ± 0.013 | 0.516 ± 0.024
19 | FVFFRFSLLFFF | 0.332 ± 0.022 | 0.344 ± 0.04 | 0.331 ± 0.029 | 0.449 ± 0.0046 | 0.269 ± 0.0034 | 0.225 ± 0.027 | 0.356 ± 0.014 | 0.337 ± 0.049
